# Measurements reported in the supplement of paper PMC11865577.
# What was measured:
# Assay in all cases: pull-down binding Z-score (relative to library population); higher = stronger binding
# [1] = tested on: TO-3-N3 (biotin conjugate); conditions: RNA library: Library-2
# Method in brief: (§1)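 Binding is given as a Z-score against the library mean and standard deviation, calculated after removing the beads-only signal and averaging barcoded replicate probes without their highest and lowest values. Cy5- or Cy3-end-labelled RNA library (1 μg) was heat-folded in phosphate/NaCl/KCl buffer and incubated 60 min at 25 °C with streptavidin beads bearing 100 pmol of biotin-conjugated small molecule. After three washes, RNA eluted in hot SDS was hybridised to a DNA barcode microarray for 20 h at 55.5 °C.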
# TO-N3 (biotin conjugate) = conditions: RNA library: Library-2
# Method in brief: as §1
# [2] = tested on: G-clamp-N3 (biotin conjugate); conditions: RNA library: Library-1 (pre-miRNA loops + repeats)
# Method in brief: as §1
# [3] = tested on: TO-N3-2 (biotin conjugate); conditions: RNA library: Library-2
# Method in brief: as §1
# [4] = tested on: TO-3-N3-2 (biotin conjugate); conditions: RNA library: Library-2
# Method in brief: as §1
Sequence,pull-down binding Z-score [1],pull-down binding Z-score (TO-N3 (biotin conjugate)),pull-down binding Z-score [2],pull-down binding Z-score [3],pull-down binding Z-score [4]
GAAGGAAGGCAAGGCUGUCUGUCCAUC [hsa-mir-4800],0.852,1.03,-1.01,0.685,0.513
GAAGGGAAGCUGGGAACCUGACUGCCUC [hsa-mir-6867],0.688,0.961,-0.151,1.66,0.402
GAAGGGGAGUUUCCCUCUAUUCCCUUC [hsa-mir-3679],0.265,-0.0396,-0.729,-0.594,-0.155
GAAUGAAAAAAUGAAUCAUC [hsa-mir-421],-0.311,-0.29,0.509,-0.0724,0.0689
GAAUUCGAUUCAUCAAAGCGAGUC [hsa-mir-485],-0.128,0.0539,-0.234,0.225,0.143
GAAUUCGCUUUAUUUAUGUUGAAUC [hsa-mir-377],-0.514,-0.944,-0.856,-0.874,-0.33
GACAAUAUGUAUAAUGUUCAUAAGUCAUUC [hsa-mir-384],0.197,0.444,0.231,-0.0426,0.227
GACACCUGGAUUCAGAGAACAUGUC [hsa-mir-1276],-0.322,-0.156,-0.716,0.137,-0.0538
GACACUUUCACUAUAUAUAGUGGC [hsa-mir-3156-3],-0.049,-0.354,-0.25,-0.533,-0.0836
GACAGGCUGGCCUCUGGAUGACCUGC [hsa-mir-5189],1.18,1.4,0.679,1.37,-0.186
GACAGGGAAAAGCACACAAGGAACUUGUC [hsa-mir-3909],-0.138,-0.0969,0.557,-0.0273,0.112
GACAGGGCAGAGGGUUGCGCCCCCUC [hsa-mir-6511b-1_6511b-2_6511a-2_6511a-3_6511a-1_6511a-4],0.412,0.754,1.05,1.23,0.284
GACAUCCCUCAUCUGUUUCUCACUGGUGUC [hsa-mir-6830],0.191,-0.0985,-0.521,-0.507,0.244
GACAUCUGGGCCAACUCUGAUCUC [hsa-mir-6515],-0.163,0.113,-1.32,0.777,-0.126
GACAUGCUCUGACUCCCCUGAUGUC [hsa-mir-6852],-0.0796,0.286,0.588,1.18,0.244
GACCAAAAGUCAACAUUAAACAACAAAUCUUGGCC [hsa-mir-5708],-0.733,-1.02,-1.3,-0.998,-0.109
GACCCCCAUGCACCCCUGUGGGCCCCUGGCAUC [hsa-mir-1257],0.219,0.727,-1.71,1.21,-0.0626
GACCGUUGGCAUCUUAAUUACCCUC [hsa-mir-532],-0.448,-0.233,-0.675,0.318,-0.339
GACCUGGAUGUGUAGGAGCUAAGACACACUCCAGGGG [hsa-mir-920],0.595,0.902,1.89,1.41,0.531
GACGAUUUGAAUUAAUAAAUUC [hsa-mir-579],0.329,0.153,0.799,-0.419,0.0871
GACGGCGCCCGCCCUGGCCCUGGC [hsa-mir-4745],0.678,1.16,0.486,1.96,0.0825
GACGGUGGGGGCCACGCUGACAGCCGC [hsa-mir-6804],2.01,2.24,1.9,1.89,0.752
GACGUCCAAUCUCUUUGGGACGCC [hsa-mir-2682],0.551,0.419,2.24,-0.436,-0.309
GACGUGAAGGGACCACAUCCCGCUUCAUGUC [hsa-mir-4697],0.541,0.374,-0.0598,0.229,-0.362
GACUGCUCAAGGUCAAAGGGGUC [hsa-mir-3918],0.174,0.367,2.12,0.66,0.119

Sequence,pull-down binding Z-score [1],pull-down binding Z-score (TO-N3 (biotin conjugate)),pull-down binding Z-score [2],pull-down binding Z-score [3],pull-down binding Z-score [4]
GACUGGACAACAUGAUGAGCCCAAACCAAUC [hsa-mir-5092],-0.245,0.0433,-1.85,0.433,0.166
GACUUCCAUGACAUGAAAUAGGAAGUC [hsa-mir-616],-0.453,-1.12,0.351,-0.705,-0.183
GACUUGAGAUUAUAGUC [hsa-mir-3685],0.268,-0.0763,-0.369,-0.546,-0.13
GACUUUUCUAUUUUCCAAAAGC [hsa-mir-423],-0.475,-0.568,-0.657,-0.573,-0.142
GAGAAACUUGAGGUCUCUGGGAGUUGCUUAAACCAGUUGACCGUAACCUGGCCAGAGAAUUCUGAUAGUGUC [hsa-mir-6740],-0.13,0.571,1.09,1.32,-0.00402
GAGAACUCACGGUGCCUGUGGUUCGA [hsa-mir-3125],-0.41,0.312,-0.479,1.49,-0.203
GAGACAACUUCCCAGUCUC [hsa-mir-6717],-0.96,-1.17,-0.0467,-0.848,-0.519
GAGACACCCGCUACCUGGUGUU [hsa-mir-4321],-0.271,-0.0464,-0.619,0.471,-0.213
GAGACACUC [hsa-mir-6126],-0.431,-0.502,-0.909,-0.469,-0.578
GAGACGCUUUUAAAGUCUC [hsa-mir-3926-2],-0.631,-0.855,0.131,-1.22,-0.552
GAGACUGCCCAAAGACUCUUCAGUAUC [hsa-mir-2681],0.782,0.738,-0.411,0.223,0.272
GAGACUUAGAAAUCCCUAAGUCUC [hsa-mir-3921],-0.258,-0.761,0.443,-0.875,-0.246
GAGACUUUAAAAGCGUCUC [hsa-mir-3926-1],-0.747,-0.993,0.184,-1.01,-0.343
GAGACUUUGUGAUUUGUCUCCAAAGCCUC [hsa-mir-6862-2_6862-1],0.202,0.0513,-1.06,-0.157,-0.468
GAGAGAGUGCACAGCCAGCUCAGGGAUUAAAGCUCUUUCUCUCUCUCUC [hsa-mir-7110],-0.181,0.311,-0.385,1.09,0.535
GAGAGUGCUGUCUGAAUGCAAUGC [hsa-mir-500a],0.797,0.89,1.08,0.766,0.291
GAGAGUGCUUUCUGAAUGCAAUGC [hsa-mir-501],-0.342,-0.14,1.7,0.716,-0.161
GAGAUGUGAUCCUGCCACAUCUC [hsa-mir-1304],-0.09,-0.261,0.421,-0.363,-0.00394
GAGCCCUGAGGGGCUC [hsa-mir-6087],0.542,0.283,1.46,-0.191,-0.303
GAGCCCUUGCACACCACCAGCCUC [hsa-mir-6845],-0.0477,0.375,-1.73,0.822,0.134
GAGCCUGUCACAUCUCCAGACUC [hsa-mir-3925],0.0173,-0.15,-1.04,0.208,-0.227
GAGCCUUAAAGGAUGAGGUA [hsa-mir-4280],0.0602,0.362,-0.485,0.54,0.063
GAGCUCAGGAGCUC [hsa-mir-8052],-0.634,-0.9,0.271,-0.448,-0.529
GAGCUGGAAGGAGUGGGCCUGGCUC [hsa-mir-6847],0.4,0.634,4.26,1.45,0.387
GAGCUGGGUGGGGUGCCAAGCCU [hsa-mir-6819],2.3,2.43,1.38,2.06,1.71

Sequence,pull-down binding Z-score [1],pull-down binding Z-score (TO-N3 (biotin conjugate)),pull-down binding Z-score [2],pull-down binding Z-score [3],pull-down binding Z-score [4]
GAGCUUCGUGUACAUUAUCUAUUAGAAAAUGAAGUAC [hsa-mir-4724],0.0277,0.0579,-0.219,0.0115,-0.033
GAGGAUGCAGGAGAGGAAGGGGGCUUCUUUUUGACGCCUACUUCAUCAGCUGCUCCUC [hsa-mir-4330],2.31,2.26,0.824,1.56,2.41
GAGGCCAGAGGUGCCC [hsa-mir-4292],-0.0325,0.295,0.687,1.3,0.122
GAGGCCUCUUGCCAUGGCCUCC [hsa-mir-7113],-0.486,-0.406,-1.1,0.766,-0.378
GAGGGAUGAGUGCACUUCACCUGC [hsa-mir-4435-1_4435-2],-0.191,0.375,0.0709,0.859,0.0965
GAGGGGCAUGCACUGUGUUCACCCUG [hsa-mir-134],0.47,0.687,-0.276,0.807,-0.0434
GAGGGGCUUACUGCCCUGUGGGGCUCUCUGGACCCAGUGCCAUGCUUCUC [hsa-mir-6728],-0.224,0.295,0.541,1.23,-0.363
GAGGUCUUCCCAUGCUAAGAAGUCCUC [hsa-mir-2116],1.51,1.19,-0.641,-0.154,0.115
GAGGUGGGAAGGCUGCCCCAAAUGGCCUCUAACAUCCCUUCCAGUCUCCUCCUC [hsa-mir-6127],-0.0543,0.194,-0.236,0.919,0.23
GAGGUUGCAGUGAGCCAAGAUCGUG [hsa-mir-4459],-0.147,0.743,2.18,1.33,0.278
GAGUACCUUCCAACACGAGCUCUC [hsa-mir-3664],-0.183,0.318,-1.16,1.06,-0.173
GAGUAUUUUAAUACUGGCAUACUC [hsa-mir-1263],-0.584,-0.837,-0.0468,-0.98,0.095
GAGUCAGAAAAACUAC [hsa-mir-601],0.125,0.484,-1.28,0.271,-0.0131
GAGUCCUAUUUAUUUUUAGGAUAUUAGGAA [hsa-mir-5692c-2],-0.421,-0.394,-0.397,-0.62,-0.148
GAGUGAAUC [hsa-mir-3610],-0.31,-0.454,-0.304,-0.552,-0.35
GAGUGAGGCCCAGUGGUCACCGCCGCCCUC [hsa-mir-4754],0.828,1.11,-0.652,1.73,0.3
GAGUGGUCGGGUCGACUGAACC [hsa-mir-4726],0.829,1.23,-0.197,1.34,0.454
GAGUGUAAUUACGUACAUGCAGUAGCUC [hsa-mir-618],0.405,0.341,0.413,0.152,0.182
GAGUUGCUGAGUGGGUUGAUCUC [hsa-mir-6764],0.17,0.122,0.494,0.652,0.061
GAGUUUGGAAUUAAAAUCAAAACC [hsa-mir-181a-1],-0.619,-0.398,-0.118,0.419,-0.129
GAGUUUGGAGUCGGUGGGUGGAGCCAAACUG [hsa-mir-6860],1.13,1.5,2.37,1.52,0.706
GAGUUUGGGAUUUGAAAAAACC [hsa-mir-181a-2],0.253,0.394,0.843,0.793,0.292
GAGUUUGGGCAGCUCAGGCAAACC [hsa-mir-181c],-0.201,0.492,0.335,1.12,0.132
